T1: human Ephrin-A4 (Homo sapiens, UniProt P52798)
T1 construct: purchased
T1 sequence (P52798 26-170): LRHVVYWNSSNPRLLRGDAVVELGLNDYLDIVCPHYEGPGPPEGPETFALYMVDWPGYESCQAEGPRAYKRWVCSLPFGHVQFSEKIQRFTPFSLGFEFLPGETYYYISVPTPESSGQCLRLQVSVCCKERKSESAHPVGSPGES

T2: human EFNA4 (Homo sapiens, UniProt P52798)
T2 sequence (P52798 26-170): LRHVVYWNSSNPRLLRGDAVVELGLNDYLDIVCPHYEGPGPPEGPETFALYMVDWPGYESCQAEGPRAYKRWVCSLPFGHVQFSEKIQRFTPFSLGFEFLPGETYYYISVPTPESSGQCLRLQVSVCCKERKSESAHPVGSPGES


Experiments:
[1] = target: T1, human Ephrin-A4; assay: SPR steady state affinity of Eph receptors for Ephrin-A4; format: binding; settings: for Kd: SPR BIAcore 2000, steady state affinity fit, captured Eph receptor, monomeric human Ephrin-A4 as analyte; for rank of affinity for Ephrin-A4 among nine Eph receptors: steady state affinity
Experimental: The properties of Ephrin-A4 binding to Eph receptors were further analyzed. Since anti-EFNA4 antibodies bind to Ephrin-A4 while the ligand is engaged with its Eph receptor, the affinity between these two macromolecules was determined. The affinities of commercially available Eph receptors and Ephrin-A4 were directly compared by surface plasmon resonance using a BIAcore 2000 (GE Healthcare) to determine the most relevant receptor. An anti-human antibody capture kit was used to immobilize recombinant Eph receptors on a CM5 biosensor chip. Prior to each antigen injection cycle, Eph receptors at the concentration of 2 μg/mL were captured on the surface with a contact time of 2 minutes and a flow rate of 5 μL/min. The captured antibody loading from baseline was constant at 150-260 response units. Following receptor capture and 1 min baseline, monomeric human Ephrin-A4 was flowed over the surface at concentrations of 400, 241, 145, 87, 53, 32, 19 and 12 nM for a 2 minute association phase followed by a 2 minute dissociation phase at a flow rate of 10 μL/min. Following each cycle, the anti-human capture surface was regenerated with 30 seconds contact time of 3M MgCl2 at 10 μL/min.
Biacore data was processed by initially calculating an average of the response at equilibrium (Req). The Req was then plotted versus concentration (M) and the steady state affinity fit was used to calculate the affinity and theoretical Rmax. In all cases, at least 5 different analyte concentrations were used to make this calculation. All data analysis steps were completed in BiaEvaluation Software 3.1 (GE Healthcare).

[2] = target: T2, human EFNA4; assay: Biacore affinity of anti-EFNA4 antibodies for EFNA4 antigen; format: binding; settings: Biacore system
Description: More particularly murine antibodies E5, E15, E22 and E47 were humanized using a computer-aided CDR-grafting method (Abysis Database, UCL Business Pic.) and standard molecular engineering techniques to generate humanized antibodies E5, E15, E22 and E47, hereinafter huE5, huE15, huE22 and huE47, respectively. The human framework regions of the variable regions were selected based on their highest sequence homology to the mouse framework sequence and its canonical structure. For the purposes of the analysis the assignment of amino acids to each of the CDR domains is in accordance with the Kabat et al. numbering.

| Molecule | Kd [1] | rank of affinity for Ephrin-A4 among nine Eph receptors [1] | affinity for EFNA4 antigen relative to murine counterpart [2] |
| --- | --- | --- | --- |
| EphA6 (protein) WPGDCSHVSNNQVVLLDTTTVLGELGWKTYPLNGWDAITEMDEHNRPIHTYQVCNVMEPNQNNWLRTNWISRDAAQKIYVEMKFTLRDCNSIPWVLGTCKETFNLFYMESDESHGIKFKPNQYTKIDTIAADESFTQMDLGDRILKLNTEIREVGPIERKGFYLAFQDIGACIALVSVRVFYKKCPFTVRNLAMFPDTIPRVDSSSLVEVRGSCVKSAEERDTPKLYCGADGDWLVPLGRCICSTGYEEIEGSCHACRPGFYKAFAGNTKCSKCPPHSLTYMEATSVCQCEKGYFRAEKDPPSMACTRPPSAPRNVVFNINETALILEWSPPSDTGGRKDLTYSVICKKCGLDTSQCEDCGGGLRFIPRHTGLINNSVIVLDFVSHVNYTFEIEAMNGVSELSFSPKPFTAITVTTDQDAPSLIGVVRKDWASQNSIALSWQAPAFSNGAILDYEIKYYEKEHEQLTYSSTRSKAPSVIITGLKPATKYVFHIRVRTATGYSGYSQKFEFETGDETSDMAAEQGQILV | 82 nM |  |  |
| EphA7 (protein) QAAKEVLLLDSKAQQTELEWISSPPNGWEEISGLDENYTPIRTYQVCQVMEPNQNNWLRTNWISKGNAQRIFVELKFTLRDCNSLPGVLGTCKETFNLYYYETDYDTGRNIRENLYVKIDTIAADESFTQGDLGERKMKLNTEVREIGPLSKKGFYLAFQDVGACIALVSVKVYYKKCWSIIENLAIFPDTVTGSEFSSLVEVRGTCVSSAEEEAENAPRMHCSAEGEWLVPIGKCICKAGYQQKGDTCEPCGRGFYKSSSQDLQCSRCPTHSFSDKEGSSRCECEDGYYRAPSDPPYVACTRPPSAPQNLIFNINQTTVSLEWSPPADNGGRNDVTYRILCKRCSWEQGECVPCGSNIGYMPQQTGLEDNYVTVMDLLAHANYTFEVEAVNGVSDLSRSQRLFAAVSITTGQAAPSQVSGVMKERVLQRSVELSWQEPEHPNGVITEYEIKYYEKDQRERTYSTVKTKSTSASINNLKPGTVYVFQIRAFTAAGYGNYSPRLDVATLEEATGKMFEATAVSSEQNPV | 86 nM |  |  |
| EphA3 (protein) ELIPQPSNEVNLLDSKTIQGELGWISYPSHGWEEISGVDEHYTPIRTYQVCNVMDHSQNNWLRTNWVPRNSAQKIYVELKFTLRDCNSIPLVLGTCKETFNLYYMESDDDHGVKFREHQFTKIDTIAADESFTQMDLGDRILKLNTEIREVGPVNKKGFYLAFQDVGACVALVSVRVYFKKCPFTVKNLAMFPDTVPMDSQSLVEVRGSCVNNSKEEDPPRMYCSTEGEWLVPIGKCSCNAGYEERGFMCQACRPGFYKALDGNMKCAKCPPHSSTQEDGSMNCRCENNYFRADKDPPSMACTRPPSSPRNVISNINETSVILDWSWPLDTGGRKDVTFNIICKKCGWNIKQCEPCSPNVRFLPRQFGLTNTTVTVTDLLAHTNYTFEIDAVNGVSELSSPPRQFAAVSITTNQAAPSPVLTIKKDRTSRNSISLSWQEPEHPNGIILDYEVKYYEKQEQETSYTILRARGTNVTISSLKPDTIYVFQIRARTAAGYGTNSRKFEFETSPDSFSISGESSQ | 77 nM |  |  |
| EphA1 (protein) KEVTLMDTSKAQGELGWLLDPPKDGWSEQQQILNGTPLYMYQDCPMQGRRDTDHWLRSNWIYRGEEASRVHVELQFTVRDCKSFPGGAGPLGCKETFNLLYMESDQDVGIQLRRPLFQKVTTVAADQSFTIRDLVSGSVKLNVERCSLGRLTRRGLYLAFHNPGACVALVSVRVFYQRCPETLNGLAQFPDTLPGPAGLVEVAGTCLPHARASPRPSGAPRMHCSPDGEWLVPVGRCHCEPGYEEGGSGEACVACPSGSYRMDMDTPHCLTCPQQSTAESEGATICTCESGHYRAPGEGPQVACTGPPSAPRNLSFSASGTQLSLRWEPPADTGGRQDVRYSVRCSQCQGTAQDGGPCQPCGVGVHFSPGARGLTTPAVHVNGLEPYANYTFNVEAQNGVSGLGSSGHASTSVSISMGHAESLSGLSLRLVKKEPRQLELTWAGSRPRSPGANLTYELHVLNQDEERYQMVLEPRVLLTELQPDTTYIVRVRMLTPLGPGPFSPDHEFRTSPPVSRGLTGGE | 414 nM |  |  |

Second part, the molecule after the results:

| Kd [1] | rank of affinity for Ephrin-A4 among nine Eph receptors [1] | affinity for EFNA4 antigen relative to murine counterpart [2] | Molecule |
| --- | --- | --- | --- |
| 31 nM | highest affinity |  | EphA2: recombinant Eph receptor captured on biosensor chip [reference compound] |
|  |  | slightly lower affinity | huE5: humanized antibody E5, VH SEQ ID NO: 5, VL SEQ ID NO: 7 (antibody, V domains shown) VH: EVQLVESGGGLVQPGGSLRLSCAASGFTVTTYGVDWVRQAPGKGLEWLGVIWGGGSTNYNSALKSRFTISRDNSKNTLYLQMNSLRAEDTAVYYCASDWAYWGQGTLVTVSS VL: DIQMTQSPSSLSASVGDRVTITCRASQNVGTNVAWFQQKPGKAPKSLIHSASYRYSGVPSRFSGSGSGTDFTLTISSLQPEDFATYYCQQYKRYPYTFGGGTKLEIK |
| 108 nM |  |  | EphB3 (protein) GCRALEETLMDTKWVTSELAWTSHPESGWEEVSGYDEAMNPIRTYQVCNVRESSQNNWLRTGFIWRRDVQRVYVELKFTVRDCNSIPNIPGSCKETFNLFYYEADSDVASASSPFWMENPYVKVDTIAPDESFSRLDAGRVNTKVRSFGPLSKAGFYLAFQDQGACMSLISVRAFYKKCASTTAGFALFPETLTGAEPTSLVIAPGTCIPNAVEVSVPLKLYCNGDGEWMVPVGACTCATGHEPAAKESQCRPCPPGSYKAKQGEGPCLPCPPNSRTTSPAASICTCHNNFYRADSDSADSACTTVPSPPRGVISNVNETSLILEWSEPRDLGGRDDLLYNVICKKCHGAGGASACSRCDDNVEFVPRQLGLTERRVHISHLLAHTRYTFEVQAVNGVSGKSPLPPRYAAVNITTNQAAPSEVPTLRLHSSSGSSLTLSWAPPERPNGVILDYEMKYFEKSEGIASTVTSQMNSVQLDGLRPDARYVVQVRARTVAGYGQYSRPAEFETTSERGSGAQQLQEQLPL |
| 135 nM |  |  | EphB2 (protein) VEETLMDSTTATAELGWMVHPPSGWEEVSGYDENMNTIRTYQVCNVFESSQNNWLRTKFIRRRGAHRIHVEMKFSVRDCSSIPSVPGSCKETFNLYYYEADFDSATKTFPNWMENPWVKVDTIAADESFSQVDLGGRVMKINTEVRSFGPVSRSGFYLAFQDYGGCMSLIAVRVFYRKCPRIIQNGAIFQETLSGAESTSLVAARGSCIANAEEVDVPIKLYCNGDGEWLVPIGRCMCKAGFEAVENGTVCRGCPSGTFKANQGDEACTHCPINSRTTSEGATNCVCRNGYYRADLDPLDMPCTTIPSAPQAVISSVNETSLMLEWTPPRDSGGREDLVYNIICKSCGSGRGACTRCGDNVQYAPRQLGLTEPRIYISDLLAHTQYTFEIQAVNGVTDQSPFSPQFASVNITTNQAAPSAVSIMHQVSRTVDSITLSWSQPDQPNGVILDYELQYYEKELSEYNATAIKSPTNTVTVQGLKAGAIYVFQVRARTVAGYGRYSGKMYFQTMTEAEYQTSIQEKLPL |
| 431 nM | lowest affinity |  | EphA10: recombinant Eph receptor captured on biosensor chip (protein) EEVILLDSKASQAELGWTALPSNGWEEISGVDEHDRPIRTYQVCNVLEPNQDNWLQTGWISRGRGQRIFVELQFTLRDCSSIPGAAGTCKETFNVYYLETEADLGRGRPRLGGSRPRKIDTIAADESFTQGDLGERKMKLNTEVREIGPLSRRGFHLAFQDVGACVALVSVRVYYKQCRATVRGLATFPATAAESAFSTLVEVAGTCVAHSEGEPGSPPRMHCGADGEWLVPVGRCSCSAGFQERGDFCEACPPGFYKVSPRRPLCSPCPEHSRALENASTFCVCQDSYARSPTDPPSASCTRPPSAPRDLQYSLSRSPLVLRLRWLPPADSGGRSDVTYSLLCLRCGREGPAGACEPCGPRVAFLPRQAGLRERAATLLHLRPGARYTVRVAALNGVSGPAAAAGTTYAQVTVSTGPGAPWEEDEIRRDRVEPQSVSLSWREPIPAGAPGANDTEYEIRYYEKGQSEQTYSMVKTGAPTVTVTNLKPATRYVFQIRAASPGPSWEAQSFNPSIEVQTLGEAASGSRDQSPA |
